In US20100144645A1, “COMPOSITIONS AND METHODS FOR ENHANCING […] POTENCY OF […]-COMPOUNDS, A[…] ADVERSE SIDE EFFECTS, AND […] ABUSE” (SHIRE LLC, priority 2006, published 2010):
Counter-ions that a name gives are not always drawn. Residues, ends and D or L forms follow the SMILES beside them. *: point of attachment. X4 = CC(=O)Oc1ccc2c3c1OC1C(O*)=CCC4[C@@H](C2)N(C)CC[C@]314; X2 = CN1CC[C@]23c4c5ccc(O)c4O[C@H]2C(O*)=CC[C@H]3[C@H]1C5; X1 = COc1ccc2c3c1OC1C(O*)=CCC4[C@@H](C2)N(C)CC[C@]314; X3 = CN1CC[C@]23c4c5ccc(O)c4OC2C(O*)=CCC3[C@H]1C5

How the values were obtained:
[1] = Oral bioavailability of hydromorphone conjugates; details: rats; for Oral AUC %: corrected value calculated based on the bioavailability of the control (HM); for Oral Cmax %: corrected value calculated based on the control (HM)
[2] = Intranasal bioavailability of hydromorphone conjugates; details: rats; for IN AUC %: corrected value calculated based on the bioavailability of the control (HM); for IN Cmax %: corrected value calculated based on the control (HM)
[3] = stability 90 C., 20 min (V, BP, TW, BS) of hydrocodone conjugates; details: for stability 90 C., 20 min BP: BP (abbreviation not defined); for stability 90 C., 20 min BS: BS (abbreviation not defined); for stability 90 C., 20 min TW: TW (abbreviation not defined); for stability 90 C., 20 min V: V (abbreviation not defined)
[4] = Oral bioavailability of hydrocodone conjugates (plasma hydrocodone plus hydromorphone); details: oral, rats; relative to hydrocodone

Compound	Oral AUC % [1]	Oral Cmax % [1]	IN AUC % [2]	IN Cmax % [2]	stability 90 C., 20 min BP [3]	stability 90 C., 20 min BS [3]	stability 90 C., 20 min TW [3]	stability 90 C., 20 min V [3]	bioavailabiltty (% HC) oral AUC [4]	bioavailabiltty (% HC) oral Cmax [4]
CC[C@H](C)[C@H](NC(=O)CNC(=O)CN)C(=O)OC1=CCC2[C@H]3Cc4ccc(O)c5c4[C@@]2(CCN3C)C1O5 (stereo partly shown) [GGI-HM]	17%	32%	24%	66%	–	–	–	–	–	–
CC(C)C[C@H](NC(=O)[C@@H]1CCCN1C(=O)[C@@H]1CCCN1)C(=O)OC1=CCC2[C@H]3Cc4ccc(O)c5c4[C@@]2(CCN3C)C1O5 (stereo partly shown) [PPL-HM]	22%	45%	53%	70%	–	–	–	–	–	–
CC(C)[C@H](NC(=O)[C@H](Cc1ccccc1)NC(=O)[C@@H](N)Cc1ccccc1)C(=O)OC1=CC[C@H]2[C@H]3Cc4ccc(O)c5c4[C@@]2(CCN3C)[C@H]1O5 [FFV-HM]	8%	36%	98%	103%	–	–	–	–	–	–
CN1CC[C@]23c4c5ccc(O)c4O[C@H]2C(OC(=O)[C@H](Cc2ccccc2)NC(=O)[C@H](Cc2ccccc2)NC(=O)[C@H](Cc2ccccc2)NC(=O)[C@H](CCC(=O)O)NC(=O)[C@@H](N)CCC(=O)O)=CC[C@H]3[C@H]1C5 [EEFFF-HM, Glu2-Phe3-Hydromorphone.Dihydrochloride] (H-EEFFF-X2)	79%	78%	52%	57%	–	–	–	–	–	–
CC(C)C[C@H](NC(=O)[C@H](Cc1ccc(O)cc1)NC(=O)[C@@H](N)Cc1ccc(O)cc1)C(=O)OC1=CCC2[C@H]3Cc4ccc(O)c5c4[C@@]2(CCN3C)C1O5 (stereo partly shown) [YYL-HM]	12%	30%	74%	75%	–	–	–	–	–	–
CC[C@H](C)[C@H](NC(=O)[C@H](Cc1ccccc1)NC(=O)[C@H](Cc1ccccc1)NC(=O)[C@H](Cc1ccc(O)cc1)NC(=O)[C@@H](N)Cc1ccc(O)cc1)C(=O)OC1=CCC2[C@H]3Cc4ccc(OC(C)=O)c5c4[C@@]2(CCN3C)C1O5 (stereo partly shown) [YYFFI-HM-OAc] (H-YYFFI-X4)	29%	40%	59%	72%	–	–	–	–	–	–
CC[C@H](C)[C@H](NC(=O)[C@H](CCCCN)NC(=O)[C@@H](N)CCCCN)C(=O)OC1=CCC2[C@H]3Cc4ccc(O)c5c4[C@@]2(CCN3C)C1O5 (stereo partly shown) [KKI-HM]	24%	56%	68%	85%	–	–	–	–	–	–
CC(C)[C@H](NC(=O)[C@@H]1CCCN1C(=O)[C@@H]1CCCN1)C(=O)OC1=CCC2[C@H]3Cc4ccc(O)c5c4[C@@]2(CCN3C)C1O5 (stereo partly shown) [PPV-HM]	24%	55%	71%	101%	–	–	–	–	–	–
CC[C@H](C)[C@H](NC(=O)CNC(=O)CN)C(=O)OC1=CCC2[C@H]3Cc4ccc(OC)c5c4[C@@]2(CCN3C)C1O5 (stereo partly drawn) [Gly-Gly-Ile-HC]	–	–	–	–	100	100	93	0	–	–
(d)-Lys-(1)-Lys-Ile-Hydrocodone [(d)Lys(I)Lys-Ile-HC]	–	–	–	–	69	100	74	0	–	–
CC[C@H](C)[C@H](NC(=O)[C@@H]1CCCN1C(=O)[C@@H]1CCCN1)C(=O)OC1=CCC2[C@H]3Cc4ccc(OC)c5c4[C@@]2(CCN3C)C1O5 (stereo partly drawn) [Pro-Pro-Ile-HC]	–	–	–	–	16	100	70	0	–	–
CC(C)[C@H](NC(=O)[C@H](CCC(=O)O)NC(=O)[C@@H](N)CCC(=O)O)C(=O)OC1=CC[C@H]2[C@H]3Cc4ccc(O)c5c4[C@@]2(CCN3C)[C@H]1O5 [EEV-HM]	21%	50%	31%	70%	–	–	–	–	–	–
CC(C)C[C@H](NC(=O)[C@H](Cc1ccccc1)NC(=O)[C@@H](N)Cc1ccccc1)C(=O)OC1=CC[C@H]2[C@H]3Cc4ccc(O)c5c4[C@@]2(CCN3C)[C@H]1O5 [FFL-HM]	11%	24%	92%	96%	–	–	–	–	–	–
Gly-Gly-Leu-Hydrocodone [Gly-Gly-Leu-HC]	–	–	–	–	100	100	85	1	–	–
CC[C@H](C)[C@H](NC(=O)[C@H](CCC(=O)O)NC(=O)[C@@H](N)CCC(=O)O)C(=O)OC1=CC[C@H]2[C@H]3Cc4ccc(O)c5c4[C@@]2(CCN3C)[C@H]1O5 [EEI-HM]	56%	73%	59%	88%	–	–	–	–	–	–
CC(C)[C@H](NC(=O)[C@H](Cc1ccc(O)cc1)NC(=O)[C@@H](N)Cc1ccc(O)cc1)C(=O)OC1=CCC2[C@H]3Cc4ccc(O)c5c4[C@@]2(CCN3C)C1O5 (stereo partly shown) [YYV-HM]	30%	53%	73%	73%	–	–	–	–	–	–
CC(C)C[C@H](NC(=O)CNC(=O)CN)C(=O)OC1=CCC2[C@H]3Cc4ccc(O)c5c4[C@@]2(CCN3C)C1O5 (stereo partly shown) [GGL-HM]	22%	43%	52%	85%	–	–	–	–	–	–
CC[C@H](C)[C@H](NC(=O)[C@H](Cc1ccccc1)NC(=O)[C@@H](N)Cc1ccccc1)C(=O)OC1=CC[C@H]2[C@H]3Cc4ccc(O)c5c4[C@@]2(CCN3C)[C@H]1O5 [FFI-HM]	18%	47%	79%	92%	–	–	–	–	–	–
CC[C@H](C)[C@H](NC(=O)[C@@H]1CCCN1C(=O)[C@@H]1CCCN1C(=O)[C@H](Cc1ccc(O)cc1)NC(=O)[C@@H](N)Cc1ccc(O)cc1)C(=O)OC1=CCC2[C@H]3Cc4ccc(OC)c5c4[C@@]2(CCN3C)C1O5 (stereo partly shown) [Tyr2-Pro2-Ile-HC] (H-YYPPI-X1)	–	–	–	–	100	100	83	0	218 % HC	213 % HC
CC(C)[C@H](NC(=O)[C@H](CCCCN)NC(=O)[C@@H](N)CCCCN)C(=O)OC1=CCC2[C@H]3Cc4ccc(O)c5c4[C@@]2(CCN3C)C1O5 (stereo partly shown) [KKV-HM]	43%	60%	75%	89%	–	–	–	–	–	–
CC[C@H](C)[C@H](NC(=O)[C@@H]1CCCN1C(=O)[C@@H]1CCCN1)C(=O)OC1=CCC2[C@H]3Cc4ccc(O)c5c4[C@@]2(CCN3C)C1O5 (stereo partly shown) [PPI-HM]	21%	60%	77%	95%	–	–	–	–	–	–
CC[C@H](C)[C@H](NC(=O)[C@H](Cc1ccccc1)NC(=O)[C@H](Cc1ccccc1)NC(=O)[C@H](Cc1ccc(O)cc1)NC(=O)[C@@H](N)Cc1ccc(O)cc1)C(=O)OC1=CCC2[C@H]3Cc4ccc(O)c5c4[C@@]2(CCN3C)C1O5 (stereo partly shown) [YYFFI-HM] (H-YYFFI-X3)	40%	52%	4%	7%	–	–	–	–	–	–
CC(C)C[C@H](NC(=O)[C@H](CCC(=O)O)NC(=O)[C@@H](N)CCC(=O)O)C(=O)OC1=CC[C@H]2[C@H]3Cc4ccc(O)c5c4[C@@]2(CCN3C)[C@H]1O5 [EEL-HM]	27%	49%	84%	98%	–	–	–	–	–	–
